# From PMC314469, “Protein Interaction Networks by Proteome Peptide Scanning” (PLoS Biology, 2004)
# T1: Boi1 SH3 (BOI1_YEAST), P38041
# T1 chain: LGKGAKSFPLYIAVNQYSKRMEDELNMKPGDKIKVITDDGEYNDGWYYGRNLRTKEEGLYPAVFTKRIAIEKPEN
# T2: Yfr024 SH3 (LSB3_YEAST), P43603
# T2 chain: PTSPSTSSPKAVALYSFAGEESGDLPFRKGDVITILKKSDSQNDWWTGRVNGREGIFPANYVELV
# T3: Rvs167 SH3 (RV167_YEAST), P39743
# T3 chain: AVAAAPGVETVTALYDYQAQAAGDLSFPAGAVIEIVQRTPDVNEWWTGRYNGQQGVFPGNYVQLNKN
# T4: Yhr016c SH3 (YSC84_YEAST), P32793
# T4 chain: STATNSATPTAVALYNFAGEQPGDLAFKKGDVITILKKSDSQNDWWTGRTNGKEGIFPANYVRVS
# T5: Boi2 SH3 (BOI2_YEAST), P39969
# T5 chain: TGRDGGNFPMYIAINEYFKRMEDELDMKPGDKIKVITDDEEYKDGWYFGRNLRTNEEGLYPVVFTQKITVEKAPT
# Molecular target: T1, Boi1 SH3 (BOI1_YEAST), P38041
# Test: SPOT array
row,Binder,"normalised SPOT signal, Boehringer light units (BLU); mean over the file's lines of this peptide"
1,DRPPDVPRKIIVGR [YBL067C 301-314],96.5
2,DSIPVDPEKVVAIV [YBL015W 216-229],50
3,DSLPFAPLRKVYEL [YBR056W 139-152],61.9
4,DLPPKFPEKPVHLV [YDR444W 186-199],0
5,DQAPSLPPKPNTQL [YCL008C 158-171],54.8
6,DVLPAGPVRSLEGA [YCR102C 122-135],24.6
7,DSIPLEPKKAKHLM [YHR118C 82-95],389
8,DPLPYSPLKLYDQK [YCR065W 382-395],58.9
9,DLQPLEPKKAAAST [YBL007C 805-818],121
10,DSGPQRPKRTRAKG [YDL106C 73-86],460
11,DSLPKLPFRSWGQP [YBR132C 490-503],179

# The next lines start with the values.
row,"normalised SPOT signal, Boehringer light units (BLU); mean over the file's lines of this peptide",Binder
1,160,DMVPKHPTKRYVPK [YOR039W 203-216]
2,108,DSDPNTPKKLSSPR [YNL238W 661-674]
3,660,DPHPEDPRRIYRIY [YNL021W 81-94]
4,96.1,DLNPDAPPKPQLIP [YPL057C 43-56]
5,181,DQKPLVPIRIYGAI [YPR023C 316-329]
6,20.7,DLKPAYPGRSAHVV [YJL127C 172-185]
7,309,DSPPQSPRRSSNSS [YKL185W 464-477]
8,142,DVIPKKPLKSAADK [YOL055C 314-327]
9,28.2,DVLPAGPVRSLEGV [YLR460C 130-143]
10,1520,DSIPSRPQRRKSVL [YMR221C 258-271]
11,75,DLPPEPPTKLSDSF [YNL284C-B 1135-1148]

# Molecular target: T2, Yfr024 SH3 (LSB3_YEAST), P43603
# Test: SPOT array
row,Binder,"normalised SPOT signal, Boehringer light units (BLU); mean over the file's lines of this peptide"
1,DRPPDVPRKIIVGR [YBL067C 301-314],2970
2,DSIPVDPEKVVAIV [YBL015W 216-229],0
3,DSLPFAPLRKVYEL [YBR056W 139-152],322
4,DLPPKFPEKPVHLV [YDR444W 186-199],10300
5,DQAPSLPPKPNTQL [YCL008C 158-171],17600
6,DVLPAGPVRSLEGA [YCR102C 122-135],137
7,DSIPLEPKKAKHLM [YHR118C 82-95],141
8,DPLPYSPLKLYDQK [YCR065W 382-395],117
9,DLQPLEPKKAAAST [YBL007C 805-818],37.7
10,DSGPQRPKRTRAKG [YDL106C 73-86],38900
11,DSLPKLPFRSWGQP [YBR132C 490-503],39100

# The remaining lines, values ahead:
row,"normalised SPOT signal, Boehringer light units (BLU); mean over the file's lines of this peptide",Binder
1,1770,DMVPKHPTKRYVPK [YOR039W 203-216]
2,28.1,DSDPNTPKKLSSPR [YNL238W 661-674]
3,161,DPHPEDPRRIYRIY [YNL021W 81-94]
4,88.2,DLNPDAPPKPQLIP [YPL057C 43-56]
5,5150,DQKPLVPIRIYGAI [YPR023C 316-329]
6,8830,DLKPAYPGRSAHVV [YJL127C 172-185]
7,15900,DSPPQSPRRSSNSS [YKL185W 464-477]
8,359,DVIPKKPLKSAADK [YOL055C 314-327]
9,4,DVLPAGPVRSLEGV [YLR460C 130-143]
10,27600,DSIPSRPQRRKSVL [YMR221C 258-271]
11,56.5,DLPPEPPTKLSDSF [YNL284C-B 1135-1148]

# Molecular target: T3, Rvs167 SH3 (RV167_YEAST), P39743
# Test: SPOT array
row,Binder,"normalised SPOT signal, Boehringer light units (BLU); mean over the file's lines of this peptide"
1,DRPPDVPRKIIVGR [YBL067C 301-314],92.5
2,DSIPVDPEKVVAIV [YBL015W 216-229],37.9
3,DSLPFAPLRKVYEL [YBR056W 139-152],156
4,DLPPKFPEKPVHLV [YDR444W 186-199],90.9
5,DQAPSLPPKPNTQL [YCL008C 158-171],32.3
6,DVLPAGPVRSLEGA [YCR102C 122-135],0
7,DSIPLEPKKAKHLM [YHR118C 82-95],33.7
8,DPLPYSPLKLYDQK [YCR065W 382-395],62.6
9,DLQPLEPKKAAAST [YBL007C 805-818],30.3
10,DSGPQRPKRTRAKG [YDL106C 73-86],218
11,DSLPKLPFRSWGQP [YBR132C 490-503],16100

# The remaining lines, values ahead:
row,"normalised SPOT signal, Boehringer light units (BLU); mean over the file's lines of this peptide",Binder
1,94.1,DMVPKHPTKRYVPK [YOR039W 203-216]
2,0,DSDPNTPKKLSSPR [YNL238W 661-674]
3,14.1,DPHPEDPRRIYRIY [YNL021W 81-94]
4,11,DLNPDAPPKPQLIP [YPL057C 43-56]
5,114,DQKPLVPIRIYGAI [YPR023C 316-329]
6,31.5,DLKPAYPGRSAHVV [YJL127C 172-185]
7,41.3,DSPPQSPRRSSNSS [YKL185W 464-477]
8,9.7,DVIPKKPLKSAADK [YOL055C 314-327]
9,32.7,DVLPAGPVRSLEGV [YLR460C 130-143]
10,651,DSIPSRPQRRKSVL [YMR221C 258-271]
11,30.9,DLPPEPPTKLSDSF [YNL284C-B 1135-1148]

# Molecular target: T4, Yhr016c SH3 (YSC84_YEAST), P32793
# Test: SPOT array
row,Binder,"normalised SPOT signal, Boehringer light units (BLU); mean over the file's lines of this peptide"
1,DRPPDVPRKIIVGR [YBL067C 301-314],358
2,DSIPVDPEKVVAIV [YBL015W 216-229],0
3,DSLPFAPLRKVYEL [YBR056W 139-152],200
4,DLPPKFPEKPVHLV [YDR444W 186-199],183
5,DQAPSLPPKPNTQL [YCL008C 158-171],4710
6,DVLPAGPVRSLEGA [YCR102C 122-135],221
7,DSIPLEPKKAKHLM [YHR118C 82-95],206
8,DPLPYSPLKLYDQK [YCR065W 382-395],216
9,DLQPLEPKKAAAST [YBL007C 805-818],0
10,DSGPQRPKRTRAKG [YDL106C 73-86],4170
11,DSLPKLPFRSWGQP [YBR132C 490-503],60200

# Further lines, results first:
row,"normalised SPOT signal, Boehringer light units (BLU); mean over the file's lines of this peptide",Binder
1,460,DMVPKHPTKRYVPK [YOR039W 203-216]
2,156,DSDPNTPKKLSSPR [YNL238W 661-674]
3,75.3,DPHPEDPRRIYRIY [YNL021W 81-94]
4,65.9,DLNPDAPPKPQLIP [YPL057C 43-56]
5,1280,DQKPLVPIRIYGAI [YPR023C 316-329]
6,1390,DLKPAYPGRSAHVV [YJL127C 172-185]
7,3410,DSPPQSPRRSSNSS [YKL185W 464-477]
8,37,DVIPKKPLKSAADK [YOL055C 314-327]
9,0,DVLPAGPVRSLEGV [YLR460C 130-143]
10,4310,DSIPSRPQRRKSVL [YMR221C 258-271]
11,105,DLPPEPPTKLSDSF [YNL284C-B 1135-1148]

# Molecular target: T5, Boi2 SH3 (BOI2_YEAST), P39969
# Test: SPOT array
row,Binder,"normalised SPOT signal, Boehringer light units (BLU); mean over the file's lines of this peptide"
1,DRPPDVPRKIIVGR [YBL067C 301-314],62.3
2,DSIPVDPEKVVAIV [YBL015W 216-229],22.2
3,DSLPFAPLRKVYEL [YBR056W 139-152],34.7
4,DLPPKFPEKPVHLV [YDR444W 186-199],25.7
5,DQAPSLPPKPNTQL [YCL008C 158-171],72.2
6,DVLPAGPVRSLEGA [YCR102C 122-135],45.9
7,DSIPLEPKKAKHLM [YHR118C 82-95],26.5
8,DPLPYSPLKLYDQK [YCR065W 382-395],134
9,DLQPLEPKKAAAST [YBL007C 805-818],104
10,DSGPQRPKRTRAKG [YDL106C 73-86],91.1
11,DSLPKLPFRSWGQP [YBR132C 490-503],25.7

# Next, values leading:
row,"normalised SPOT signal, Boehringer light units (BLU); mean over the file's lines of this peptide",Binder
1,114,DMVPKHPTKRYVPK [YOR039W 203-216]
2,22.9,DSDPNTPKKLSSPR [YNL238W 661-674]
3,40.8,DPHPEDPRRIYRIY [YNL021W 81-94]
4,41.5,DLNPDAPPKPQLIP [YPL057C 43-56]
5,88.8,DQKPLVPIRIYGAI [YPR023C 316-329]
6,77.4,DLKPAYPGRSAHVV [YJL127C 172-185]
7,15.6,DSPPQSPRRSSNSS [YKL185W 464-477]
8,35.9,DVIPKKPLKSAADK [YOL055C 314-327]
9,44,DVLPAGPVRSLEGV [YLR460C 130-143]
10,334,DSIPSRPQRRKSVL [YMR221C 258-271]
11,30.6,DLPPEPPTKLSDSF [YNL284C-B 1135-1148]
